Assay results taken from article PMC8626312, “In vitro assembly complex formation of TRAIP CC and RAP 80 zinc finger motif revealed by our study” (Saudi Journal of Biological Sciences, 2021).
Each block holds one binder with its values, some of them ahead of it.

B2: TRAIP CC (66–164 aa) (domain or fragment, human, UniProt Q9BWF2 66-164, looked up)
chain: LAQEEENVLDAEFLKNELDNVRAQLSQKDKEKRDSQVIIDTLRDTLEERNATVVSLQQALGKAEMLCSTLKKQMKYLEQQQDETKQAQEEARRLRSKMK
notes: The abstract prints 64–166 for this construct; Calculated mass with the C-terminal His tag is 12325 Da; also called TRAIP coiled-coil domain; TRAIP-1; source: E. coli BL21 (DE3), purified (Ni-NTA, SEC); not shown: His6, C-terminal, kept

Assays:
[1] = biological target: the molecule itself; assay: SEC; each protein alone on Superdex 200 HR 10/30, 20 mM Tris-HCl pH 8.0, 150 mM NaCl; oligomeric state from the elution volume
TRAIP CC (66–164 aa) = biological target: B2; assay: SEC; purified proteins mixed in a molar ratio of approximately 1:1, pre-incubated 30 min at 4 °C, Superdex 200 HR 10/30, 20 mM Tris-HCl pH 8.0, 150 mM NaCl; fractions on SDS-PAGE; conditions: both partners purified
[2] = biological target: the molecule itself; assay: SEC-MALS; TRAIP CC alone on a size exclusion column HR 10/30, 20 mM Tris-HCl pH 8, 150 mM NaCl; three-angle light scattering and refractive index detectors (Wyatt mini-DAWN TREOS), ASTRA

- binding result (TRAIP CC (66–164 aa)): binds
B1: RAP80 zinc finger (490–584 aa) (domain or fragment, human, UniProt Q96RL1 490-584, looked up)
chain: KEVAISTFSSSNQVSCPLCDQCFPPTKIERHAMYCNGLMEEDTVLTRRQKEAKTKSDSGTAAQTSLDIDKNEKCYLCKSLVPFREYQCHVDSCLQ
notes: RAP80 (receptor-associated protein 80), human, 719 aa, zinc finger motif, residues 490(K)-584(Q), 95 aa; the methods name pET24a with a C-terminal His6; also called RAP80 Zn finger motif; RAP80-1; source: E. coli BL21 (DE3), purified (Ni-NTA, SEC)
- stoichiometry N [1]: 3

Binder: B2
- stoichiometry N [2]: 3

B3: TRAIP RINGCC (1-157aa) (domain or fragment, human, UniProt Q9BWF2 1-157, looked up)
chain: MPIRALCTICSDFFDHSRDVAAIHCGHTFHLQCLIQWFETAPSRTCPQCRIQVGKRTIINKLFFDLAQEEENVLDAEFLKNELDNVRAQLSQKDKEKRDSQVIIDTLRDTLEERNATVVSLQQALGKAEMLCSTLKKQMKYLEQQQDETKQAQEEAR
notes: the methods name pET24a with a C-terminal His6; One sentence of the results prints 1–517; also called TRAIP-5; TRAIP RINGCC (1–517); source: E. coli BL21 (DE3), purified (Ni-NTA, SEC)
- binding result [1]: binds
